Test results taken from patent publication US10472401B2, “Peptides and combination of peptides for use in immunotherapy against ovarian cancer and other cancers” (immatics biotechnologies GmbH, priority 2015, dated 2019).

Biological target: HLA-A*02:01 (Homo sapiens, UniProt P04439, D140Y/D185E/D98H/E176V/E277Q/G131W/G231S/I119V/I121R/I166T/I218V/L300P/L318F/N151K/N90K/P208A/P217A/Q86G/Q94H/R138H/R169H/T345S)
Assay: MHC binding assay (UV-ligand exchange, ELISA of stabilized MHC complexes)
Conditions: MHC class I binding score; binding to HLA-A*02:01 ranged by peptide exchange yield (UV-ligand exchange, ELISA)
Procedure, shortened: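 Binding scored as exchange yield, detected via β2m of stabilized complexes in an HRP/TMB ELISA read at 450 nm after streptavidin capture of 100-fold diluted monomers for 1 h at 37 °C. Complexes came from UV irradiation cleaving a photolabile peptide, exchanged for the candidate.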

| Peptide exchange | Substance |
| --- | --- |
| ″+++″ (≥50% = +++) | 472 (KLLEVSDDPQV; listed as Homo sapiens) [compound 472] |
| ″+++″ (≥50% = +++) | 473 (AMATESILHFA; listed as Homo sapiens) [compound 473] |
| ″+++″ (≥50% = +++) | 474 (YLDPALELGPRNV; listed as Homo sapiens) [compound 474] |
| ″+++″ (≥50% = +++) | 475 (LLLNEEALAQI; listed as Homo sapiens) [compound 475] |
| ″+++″ (≥50% = +++) | 476 (ALMERTGYSMV; listed as Homo sapiens) [compound 476] |
| ″+++″ (≥50% = +++) | 477 (ALLPASGQIAL; listed as Homo sapiens) [compound 477] |
| ″+++″ (≥50% = +++) | 478 (YLLHEKLNL; listed as Homo sapiens) [compound 478] |
| ″+++″ (≥50% = +++) | 479 (SLFGNSGILENV; listed as Homo sapiens) [compound 479] |
| ″+++″ (≥50% = +++) | 480 (ALLEDSCHYL; listed as Homo sapiens) [compound 480] |
| ″+++″ (≥50% = +++) | 481 (GLIEDYEALL; listed as Homo sapiens) [compound 481] |
| ″+++″ (≥50% = +++) | 484 (SLIEKVTQL; listed as Homo sapiens) [compound 484] |
| ″+++″ (≥50% = +++) | 485 (NVPDSFNEV; listed as Homo sapiens) [compound 485] |
| ″+++″ (≥50% = +++) | 486 (AVMESIQGV; listed as Homo sapiens) [compound 486] |
| ″+++″ (≥50% = +++) | 487 (LLINSVFHV; listed as Homo sapiens) [compound 487] |
| ″+++″ (≥50% = +++) | 488 (FLAEDPKVTL; listed as Homo sapiens) [compound 488] |
| ″+++″ (≥50% = +++) | 490 (FLLQHVQEL; listed as Homo sapiens) [compound 490] |
| ″++″ (≥20% = ++) | 491 (GLNDRSDAV; listed as Homo sapiens) [compound 491] |
| ″+++″ (≥50% = +++) | 492 (SLFDGFADGLGV; listed as Homo sapiens) [compound 492] |
| ″+++″ (≥50% = +++) | 493 (GLLGEKTQDLIGV; listed as Homo sapiens) [compound 493] |
| ″++″ (≥20% = ++) | 494 (ALQPEPIKV; listed as Homo sapiens) [compound 494] |

| Peptide exchange | Substance |
| --- | --- |
| ″+++″ (≥50% = +++) | 495 (FIFSEKPVFV; listed as Homo sapiens) [compound 495] |
| ″+++″ (≥50% = +++) | 496 (FLVEKQPPQV; listed as Homo sapiens) [compound 496] |
| ″+++″ (≥50% = +++) | 497 (GLLEKLTAI; listed as Homo sapiens) [compound 497] |
| ″+++″ (≥50% = +++) | 498 (KLWTGGLDNTV; listed as Homo sapiens) [compound 498] |
| ″+++″ (≥50% = +++) | 500 (SLMEDQVLQL; listed as Homo sapiens) [compound 500] |
| ″+++″ (≥50% = +++) | 501 (LLDPNVKSIFV; listed as Homo sapiens) [compound 501] |
| ″+++″ (≥50% = +++) | 502 (RLLAQVPGL; listed as Homo sapiens) [compound 502] |
| ″+++″ (≥50% = +++) | 503 (SLNHFTHSV; listed as Homo sapiens) [compound 503] |
| ″++″ (≥20% = ++) | 504 (GLSDGNPSL; listed as Homo sapiens) [compound 504] |
| ″++″ (≥20% = ++) | 505 (SLAPGDVVRQV; listed as Homo sapiens) [compound 505] |
| ″+++″ (≥50% = +++) | 506 (KLLGKVETA; listed as Homo sapiens) [compound 506] |
| ″+++″ (≥50% = +++) | 507 (KLIDDQDISISL; listed as Homo sapiens) [compound 507] |
| ″+++″ (≥50% = +++) | 508 (ILAQEQLVVGV; listed as Homo sapiens) [compound 508] |
| ″+++″ (≥50% = +++) | 509 (FLFDTKPLIV; listed as Homo sapiens) [compound 509] |
| ″++″ (≥20% = ++) | 510 (KLYSVVSQL; listed as Homo sapiens) [compound 510] |
| ″+++″ (≥50% = +++) | 512 (SLSEIVPCL; listed as Homo sapiens) [compound 512] |
| ″++″ (≥20% = ++) | 513 (SLWPSPEQL; listed as Homo sapiens) [compound 513] |
| ″+++″ (≥50% = +++) | 514 (ILVDWLVQV; listed as Homo sapiens) [compound 514] |
| ″+++″ (≥50% = +++) | 515 (LLQELVLFL; listed as Homo sapiens) [compound 515] |
| ″++″ (≥20% = ++) | 516 (AVGPASILKEV; listed as Homo sapiens) [compound 516] |

| Peptide exchange | Substance |
| --- | --- |
| ″+++″ (≥50% = +++) | 517 (LLMPIPEGLTL; listed as Homo sapiens) [compound 517] |
| ″+++″ (≥50% = +++) | 518 (KLNAEVACV; listed as Homo sapiens) [compound 518] |
| ″+++″ (≥50% = +++) | 519 (GLLHLTLLL; listed as Homo sapiens) [compound 519] |
| ″+″ (≥10% = +) | 520 (LAVHPSGVAL; listed as Homo sapiens) [compound 520] |
| ″+++″ (≥50% = +++) | 521 (MLLTKLPTI; listed as Homo sapiens) [compound 521] |
| ″++″ (≥20% = ++) | 522 (TLWYRSPEV; listed as Homo sapiens) [compound 522] |
| ″++″ (≥20% = ++) | 523 (YQIPRTFTL; listed as Homo sapiens) [compound 523] |
| ″++″ (≥20% = ++) | 524 (ALIENLTHQI; listed as Homo sapiens) [compound 524] |
| ″+++″ (≥50% = +++) | 525 (VLLEAGEGLVTI; listed as Homo sapiens) [compound 525] |
| ″++″ (≥20% = ++) | 526 (RLAEVGQYEQV; listed as Homo sapiens) [compound 526] |
| ″++++″ (≥75% = ++++) | 527 (FLLEPGNLEV; listed as Homo sapiens) [compound 527] |
| ″+++″ (≥50% = +++) | 528 (SVAEGRALMSV; listed as Homo sapiens) [compound 528] |
| ″+++″ (≥50% = +++) | 529 (LLADELITV; listed as Homo sapiens) [compound 529] |
| ″+++″ (≥50% = +++) | 530 (VMYADIGGMDI; listed as Homo sapiens) [compound 530] |
| ″+++″ (≥50% = +++) | 531 (YTLPIASSIRL; listed as Homo sapiens) [compound 531] |
| ″+++″ (≥50% = +++) | 537 (TLAPGEVLRSV; listed as Homo sapiens) [compound 537] |
| ″++″ (≥20% = ++) | 538 (LLLAHIIAL; listed as Homo sapiens) [compound 538] |
| ″+++″ (≥50% = +++) | 539 (ALFDAQAQV; listed as Homo sapiens) [compound 539] |
